Assay: yeast display, Sf9 membrane polyspecificity reagent, FACS + sequencing; frameworks hold sequencing errors
Outline: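 Synthetic nanobody libraries on Saccharomyces cerevisiae BJ5465 were galactose-induced for 36–48 hours, stained 1 hour at 4 °C with 10% biotinylated, detergent-solubilized Sf9 membrane reagent and enriched on streptavidin microbeads. FACS then separated cells into low and high (top ~1%) gates by anti-HA (expression) and streptavidin (reagent binding) fluorescence. Genes were colony-PCR amplified, MiSeq 2 × 250 sequenced and CDR-length filtered. A clone's polyreactivity label is that of its gate of origin.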

Sequence | polyreactivity (PSR sort gate)
QVQLVESGGGLFQAGGSLRLSCAASGRTFDDYAMGWYRQAPGKERELVAGITDNGGGTNYADSVKGRFTISRDNAKNTVYLQMNSLKQEDTAVYYCAAGETFEMYYWGQVTQVTVSS | low polyreactivity
QVQLVESGGGLVQAGGSLRLSCAASGFTFRRYAMGWYRQAPGKERELVAAITWSGGSTYYADSVKGRFTISRDNAKNTVYLQMNSLKPEDTAVYYCNKAYSPLYFSYNYWGQGTQVTVSS | high polyreactivity
QVQLVESGGGLVQAGGSLRLSCAASGFTFPFNAMGWYRQAPGKERELVAAISQRTGRTYYADSVKGRFTISRDNAKNTVYLQMNSLKPEDTAVYYCNARTGTTGYGRYDYWGQGTQVTVSS | high polyreactivity
QVQLVESGGGLVQAGGSLRLSCAASGITFRTNAMGWYRQAPGKERELVAVISSTGGRTYYADSVKGRFTISRDNAKNTVYLQMNSLNPEDTAVYYCAARAKYRFGYDYWGQGTQVTVSS | high polyreactivity
QVQLVESGGCLVQAGGSLRLSCAASGGTFSRNAMGWYRQAPGKERELVAAINSSGVSTSYAYSVKGRFTISRDNEKNTVYLQMNSLKPEDTAFYYCAAETSSAEVDYWGQGTQVTVSS | low polyreactivity
QVQLVESGGGLVQEGGSLLLSCAASGRTFNQYAMGWYRQAPGKERELVAGITISGGSTYYADSVKGRFTISRENAKNTVYLQMNSLIPEDTAVYYCIAVFDYYRQSKWTMDYWGQGTQVTVSS | low polyreactivity
QVQLVESGGGLVQAGGSLRLSSAASGSLFDGNAMGWYRQAPGKEREFVAAITSSDGSTSYADSVKGRFTISRDNAKNTVYLQMNSLKPEDTAVYYCNVDDYFWPGAKFDYWGQGSQVTVSS | low polyreactivity
QVQLVESGGGLVQAGGTLRLSCAASGLIFDANAMGWYRQAPGTERELVAAITGSGGRTYYADSVKGRFTISRDIAKHTVYLQMNSLKPEDTAVYYCAASSKRKYLYNYWGQGTQVTVSS | high polyreactivity
QVQLVESGGGLVQAGGSLRLSCAASGLIFWAYAMGWYRQAPGKERELVAAISWSGARTYYADSVKGRFTISRDNAKNTVYLQMNILKPEDTAVYYCAAGLSSSSSGYEGDYWGLGTQVTVSS | high polyreactivity
QVQLVESGGGLVQAGGSLRLSFAASGRTFNTYTMGWYRQAPGKERELVAAITGTGGSTFYADSVKGRFTISRDNAKNTVYLQMNSLKPEDTAVYYCNADLEVTIGVYTDGFDSDYWGQGTQVTVSS | low polyreactivity
QFQLVDSGGGLVQAGGSLRLSCAASGRIFSTNAMGWYRLAPGKEWELDAAINWSTGSYVLRRSVKGRFTISRDNAKNTVYLQMNSLKTEDTAVYYCAARVTVVGDYYWGQGTQVTVSS | high polyreactivity
QVQLVESGGGLVQAGGSLRLSCAASGFTFWYYAMGWYRQAPGKERELVATISRGGGSTYYADSVKGRFTISRDNAKNTVYLQMNSLKPEDTAVYYCAAETVRWWWLYDYWGQGTQVTVSS | high polyreactivity
QVQLVESGGGLVQAGGSLRLSCPASGSSSVYNAMGWYRQAPGKERELVAAISWSGGRTSYADSVKGRFTISRDIAKNTVYLQMNSLKPEDTAVYFCAAHTVYSPPRVAGPGYDYWGQGTQVTVSS | low polyreactivity
QVQLEESGGGVVQAGGSLRLSCAASGGIFNVYVMGWYRQAPGKERELVAAITWRGGSTYYADSVKGRFTISRDNAKNTVYLQMNSLKPEDTAVYYCNADAPFQSSSDGYQVEYWGQGTQVTVSS | low polyreactivity
QVQLVESGGGLVQAGGSLRLSCAASGSTFHPNAMGWCRQAPRKQRELFAAITWSTSVTYYADSVKGRFTISRDNAKNTVFLQMISLKPEDSAVYYCNAGYMLDSFRYDHWGQCTQVTVSS | low polyreactivity
RVQLVESGGGLVKAGGSLRLSCAASGSIFYQYTMGWYRQAPGKERELVATISWSDVSTYYADSVKGRFTISRDNAKNTVYLQMNSLKPEDTAVYYCAALYWGWDRYYGYDYWGQGTQVTVSS | low polyreactivity

Sequence | polyreactivity (PSR sort gate)
QDQLVQSGGGLVQAGGSLRLSCAASGFTFYYYAMGWYRQAPGKETELVAGISKSGGITYYADSVKGRFTISRDNAKNTVYLQMNSLKPEDTAVYYCAAAAWYQFFLYRYTYEYWGQGTQVTVSS | low polyreactivity
QVQLVESGGGLVQAGGSLRLSCAASGFTFDQYAMGWYRQAPGKEREFVAAINQSTGSTYYADSVKGRFTISRDNAKNTVYLQMISLKPEDTAVYYCAAEESSTSSEYDYWGQGTQVTVSS | low polyreactivity
QVQLVESGGGYVQAGGSLRLSCAASGSTFRYYAMGWYRQAPGKEREFVASITQSGGSTYYADSVMGRFTISRDNAKNTVYLQMISLKPEDTAVYYCAADVYSWVYLMDYWGQGTQVTVSS | low polyreactivity
QVQLVESGGGLVQAGGSLRLSCAASGSTLYWNAMGWYRQAPGKERELVADISSTGRTYYADSVKGRFTISRDNAKNTVYLQMNSLKPEDTAVYYCNADYFFEFDYWGQGTQVTVSS | low polyreactivity
QVQLVESGGGLVQAGGSLRLSCAASGFIFYSNPMGWYRQAPGKERELVAAITSGGSTYYADSVKGRFTISRDNAKNTVYLQMNSLKPEETAVYYCAAVVRVYFRGFTSYDYWGQGTQVTVSS | high polyreactivity
QVQLVESGGGLVQAGGSLRLSCAASGSTFYQSVMGWYRQAPGKERELVADITNGGSTYYADSVKGRFTISRDNAKNTVYLQMNSLKPEDTAVYYCAADGGYYWYTYWYGGLYYWGQGTQVTVSS | high polyreactivity
QVQLVESGGGLVQAGGSLRLSCAASGITFRYYAMGWYRQAPGKERELVAAISGSGGSTYYADSVKGRFTISRDNAKNTVYLQMNSLKPEDTAVNYCNVDKGYSRSLRLGYDYWGQGTEVTVSS | high polyreactivity
QVQLVESGGGLVQAGGSLRLSCAASGSLFRYYVMGWYRQAPGKERELVAAISSRGGSTYYADSVKGRFTISRDNAKNSVYLLMNSLKPEDTAFYYCAARFGGWDRGLDYWGQGTLVTVSS | high polyreactivity
QDQLVESGGGLDQAGGSLRLSCAASGSTLGNNAMGWYRQAPGKERELVAAISTRGGSTYYADSVKGRFTISRDNAKNTVYLQMNSLKPEDTAVYYCAADFGQYHGDVRKMDYWGQGTQVTVSS | low polyreactivity
QVQLLESGGGLVQAGGRLRLSCAASRNTFRQTAMGWNRQAPGKETELVASITSGGSTYYADSVQGRFTISRDNAKNTVYLQMNSLNPEDTAVYYCASRYIRSASWFYRIYDYWGQGTQVTVSS | high polyreactivity
QVQLVESGGGLVHAGGSLRLSCAASGFTFRWYAMGWYRQAPGKERELVARIRGGGSTNYADSVKGRFTISRDNAKNTVYLQMNSLKPEDTAVYYCNTAYPWPPVKYDYWGQGTQVTVSS | high polyreactivity
QVQLVESGGGLVQAGGSLRLSCAASGGIFGANSMGWYRQAPGKERELVATITRGGSTNYADSVKGRFTISRDNAKNTVYLQMNSLKTEDTAVYYCAARFYSRAFWPAYYYWGQGTQVTVSS | high polyreactivity
QVQLVESGGGLVQAGGSLRLSCAASGVTFQFYARGWYREAPGKERELVAAISRRGGRTDYADSVTGRFTISRDNAKNTAYLQMNSLKPEDTAVYYCARDPGAFEYWGQGTQVTVSS | high polyreactivity
QVQLVESGGGLVQAGGSLRLSCAASGSIFLRNAMGWYRQAPGKERELVAAISWGGRTYYADSVKGRFTISRDNAKNTVYLQLNSLKPEDRAVYYCSADGTWVRSPHFYYWGQGTQVTVSS | low polyreactivity
QVQLVESGGGLVQAGGSLRLSCAASGFIFVFYAMGWYIQAPGKERELVAAITWSGGGTYYADSVKGRFTISRDNAKNTVYLQMNSLKPEDTAVYYCNTDASPYLFDYWGQGTQVTVSS | low polyreactivity
QVQLVESGGGLVQAGGSLRLSCAASGRTFKAYAMGWYRQAPGKERELVAAITYSGGSTYYADSVKGRFTISRDNAKNTVYLQMNSLKPEDTAVYYCAASAQSRSRVKLYYWGQGTQVTVSS | high polyreactivity

— the nanobody polyreactivity screen of Harvey et al. (2022)
